Data published in US20090098549, “SELEX AND PHOTOSELEX” (SOMALOGIC, INC., published 2009).

Target: beta-catenin (UniProt P35222 P35222:2-781)
Test: photocrosslink returned to full activity without 3' fixed region
Settings: tags: NHS-PEO4-biotin or His tag (assay used TALON beads); label: 32P
Description: Radiolabeled aptamer (100 pM) was denatured and renatured as described above, with, or without a 100-fold excess of unlabeled 3′ primer. The samples were incubated with or without 10 nM β-catenin protein in SB17 for 30 minutes at 37° C., after which complexes were crosslinked by irradiation with an OAI Hg lamp (Optical Associates, Inc. model 0131-0003-01, 500 W, with 310 nm mirror set) for 10 minutes at 37° C. Samples were mixed with 2× formamide loading buffer, heated for 10 minutes at 70° C., and loaded on a 10% polyacrylamide TBE-urea gel. Phosphorimages were collected with a FUJI FLA-3000 FIG. 7A. Crosslink activity was determined for each sample by quantifying the free aptamer and aptamer:protein signals with FUJI ImageGauge image analysis software and calculating the percent of total DNA crosslinked with target protein and subtracting the percent crosslinked without protein.

Sequence of beta-catenin (P35222 2-781, one chain of several): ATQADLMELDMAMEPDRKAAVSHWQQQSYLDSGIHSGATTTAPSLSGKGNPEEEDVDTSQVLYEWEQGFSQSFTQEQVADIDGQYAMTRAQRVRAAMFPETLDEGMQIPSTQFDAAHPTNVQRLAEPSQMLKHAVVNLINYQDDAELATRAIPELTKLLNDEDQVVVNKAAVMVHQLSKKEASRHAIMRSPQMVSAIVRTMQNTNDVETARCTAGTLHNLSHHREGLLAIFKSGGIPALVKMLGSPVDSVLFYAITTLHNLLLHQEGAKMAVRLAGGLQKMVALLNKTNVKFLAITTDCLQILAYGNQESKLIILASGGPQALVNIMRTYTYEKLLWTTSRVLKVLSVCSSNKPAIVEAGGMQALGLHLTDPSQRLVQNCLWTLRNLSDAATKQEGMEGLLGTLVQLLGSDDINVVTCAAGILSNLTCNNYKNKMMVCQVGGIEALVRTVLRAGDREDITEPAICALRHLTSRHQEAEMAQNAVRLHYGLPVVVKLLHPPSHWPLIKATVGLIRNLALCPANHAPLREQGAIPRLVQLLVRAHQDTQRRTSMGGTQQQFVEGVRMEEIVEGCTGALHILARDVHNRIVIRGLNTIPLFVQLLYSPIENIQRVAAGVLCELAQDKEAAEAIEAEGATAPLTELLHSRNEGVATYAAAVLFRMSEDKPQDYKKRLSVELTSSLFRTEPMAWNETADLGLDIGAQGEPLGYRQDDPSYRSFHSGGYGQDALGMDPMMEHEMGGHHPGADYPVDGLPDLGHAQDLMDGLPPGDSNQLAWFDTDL

B1: 2092-68-6 (ssDNA)
DNA: ATATATATGAGTGACCGTCTGCCTGAGCUGCGGUUGAUGAUAUACUUCGCUUUCACUGCUCACAC
modifications: X=ANA-dT, Z=BzdU
Question: Does B1 bind?
Answer: binds
